Series [1] concerns the molecule itself. The series can be described thus: cross-linking; inter-subunit disulfide between introduced cysteines, spontaneous (purified without reductant) or induced with copper-phenanthroline (CuP) for 1 h at room temperature, 0.2 mg/mL protein in Buffer A (150 mM NaCl, 10 mM HEPES pH 7.5, 5 mM DM); non-reducing SDS-PAGE, Coomassie, monomer and dimer bands quantified.

Series [2] concerns the molecule itself. As to the kind of experiment: SEC; Superdex 200 gel filtration, before and after treatment with CuP.

B1: D417C/A404L ClC-ec1 (cysteine-less background) (natural protein, E. coli)
chain: MKTDTPSLETPQAARLRRRQLIRQLLERDKTPLAILFMAAVVGTLVGLAAVAFDKGVAWLQNQRMGALVHTADNYPLLLTVAFLASAVLAMFGYFLVRKYAPEAGGSGIPEIEGALEDQRPVRWWRVLPVKFFGGLGTLGGGMVLGREGPTVQIGGNIGRMVLDIFRLKGDEARHTLLATGAAAGLAAAFNAPLAGILFIIEEMRPQFRYTLISIKAVFIGVIMSTIMYRIFNHEVALIDVGKLSDAPLNTLWLYLILGIIFGIFGPIFNKWVLGMQDLLHRVHGGNITKWVLMGGAIGGLAGLLGFVAPATSGGGFNLIPIATAGNFSMGMLVFIFVARVITTLLSFSSGAPGGIFAPMLALGTVLGTAFGMVAVELFPQYHLEAGTFAIAGMGALLAASIRLPLTGIILVLEMTCNYQLILPMIITGLGATLLAQFTGGKPLYSAILARTLAKQEAEQLARSK
notes: ClC-ec1; D417C with A404L in the cysteine-less background C85A/C302A/C347S; source: expressed and purified as in Accardi and Miller, 2004, final step Superdex 200 size exclusion
Regarding B1, the binding result in series [1] was “binds”.

B2: D417C/F357A ClC-ec1 (cysteine-less background) (natural protein, E. coli)
chain: MKTDTPSLETPQAARLRRRQLIRQLLERDKTPLAILFMAAVVGTLVGLAAVAFDKGVAWLQNQRMGALVHTADNYPLLLTVAFLASAVLAMFGYFLVRKYAPEAGGSGIPEIEGALEDQRPVRWWRVLPVKFFGGLGTLGGGMVLGREGPTVQIGGNIGRMVLDIFRLKGDEARHTLLATGAAAGLAAAFNAPLAGILFIIEEMRPQFRYTLISIKAVFIGVIMSTIMYRIFNHEVALIDVGKLSDAPLNTLWLYLILGIIFGIFGPIFNKWVLGMQDLLHRVHGGNITKWVLMGGAIGGLAGLLGFVAPATSGGGFNLIPIATAGNFSMGMLVFIFVARVITTLLSFSSGAPGGIAAPMLALGTVLGTAFGMVAVELFPQYHLEAGTFAIAGMGALLAASIRAPLTGIILVLEMTCNYQLILPMIITGLGATLLAQFTGGKPLYSAILARTLAKQEAEQLARSK
notes: ClC-ec1; D417C with the Helix-N mutation F357A in the cysteine-less background C85A/C302A/C347S; also called F357A (Helix N); source: expressed and purified as in Accardi and Miller, 2004, final step Superdex 200 size exclusion
On to B2, for which, in series [1], the binding result is “binds”.

B3: Y419C ClC-ec1 (WT ClC-ec1 background) (natural protein, E. coli)
chain: MKTDTPSLETPQAARLRRRQLIRQLLERDKTPLAILFMAAVVGTLVGLAAVAFDKGVAWLQNQRMGALVHTADNYPLLLTVAFLCSAVLAMFGYFLVRKYAPEAGGSGIPEIEGALEDQRPVRWWRVLPVKFFGGLGTLGGGMVLGREGPTVQIGGNIGRMVLDIFRLKGDEARHTLLATGAAAGLAAAFNAPLAGILFIIEEMRPQFRYTLISIKAVFIGVIMSTIMYRIFNHEVALIDVGKLSDAPLNTLWLYLILGIIFGIFGPIFNKWVLGMQDLLHRVHGGNITKWVLMGGAIGGLCGLLGFVAPATSGGGFNLIPIATAGNFSMGMLVFIFVARVITTLLCFSSGAPGGIFAPMLALGTVLGTAFGMVAVELFPQYHLEAGTFAIAGMGALLAASIRAPLTGIILVLEMTDNCQLILPMIITGLGATLLAQFTGGKPLYSAILARTLAKQEAEQLARSK
notes: ClC-ec1, prokaryotic CLC Cl-/H+ exchange transporter, homodimer; Y419C in the WT (native cysteines kept) background; source: expressed and purified as in Accardi and Miller, 2004, final step Superdex 200 size exclusion
For B3, the binding result in series [1] is “binds”.

B4: D417C ClC-ec1 (cysteine-less C85A/C302A/C347S background, called the "WT background") (natural protein, E. coli)
chain: MKTDTPSLETPQAARLRRRQLIRQLLERDKTPLAILFMAAVVGTLVGLAAVAFDKGVAWLQNQRMGALVHTADNYPLLLTVAFLASAVLAMFGYFLVRKYAPEAGGSGIPEIEGALEDQRPVRWWRVLPVKFFGGLGTLGGGMVLGREGPTVQIGGNIGRMVLDIFRLKGDEARHTLLATGAAAGLAAAFNAPLAGILFIIEEMRPQFRYTLISIKAVFIGVIMSTIMYRIFNHEVALIDVGKLSDAPLNTLWLYLILGIIFGIFGPIFNKWVLGMQDLLHRVHGGNITKWVLMGGAIGGLAGLLGFVAPATSGGGFNLIPIATAGNFSMGMLVFIFVARVITTLLSFSSGAPGGIFAPMLALGTVLGTAFGMVAVELFPQYHLEAGTFAIAGMGALLAASIRAPLTGIILVLEMTCNYQLILPMIITGLGATLLAQFTGGKPLYSAILARTLAKQEAEQLARSK
notes: ClC-ec1, prokaryotic CLC Cl-/H+ exchange transporter, homodimer; D417C in the cysteine-less background C85A/C302A/C347S; E. coli is named only in the keywords; also called D417C/WT; source: expressed and purified as in Accardi and Miller, 2004, final step Superdex 200 size exclusion
A word on the stoichiometry N: it is the number of molecules, sites or subunits per partner or assembly. As for B4, in series [2], the “stoichiometry N” value came to 2.

B5: D417C/E148A ClC-ec1 (cysteine-less background) (natural protein, E. coli)
chain: MKTDTPSLETPQAARLRRRQLIRQLLERDKTPLAILFMAAVVGTLVGLAAVAFDKGVAWLQNQRMGALVHTADNYPLLLTVAFLASAVLAMFGYFLVRKYAPEAGGSGIPEIEGALEDQRPVRWWRVLPVKFFGGLGTLGGGMVLGRAGPTVQIGGNIGRMVLDIFRLKGDEARHTLLATGAAAGLAAAFNAPLAGILFIIEEMRPQFRYTLISIKAVFIGVIMSTIMYRIFNHEVALIDVGKLSDAPLNTLWLYLILGIIFGIFGPIFNKWVLGMQDLLHRVHGGNITKWVLMGGAIGGLAGLLGFVAPATSGGGFNLIPIATAGNFSMGMLVFIFVARVITTLLSFSSGAPGGIFAPMLALGTVLGTAFGMVAVELFPQYHLEAGTFAIAGMGALLAASIRAPLTGIILVLEMTCNYQLILPMIITGLGATLLAQFTGGKPLYSAILARTLAKQEAEQLARSK
notes: ClC-ec1; D417C with E148A in the cysteine-less background C85A/C302A/C347S; also called D417C in the E148A mutant background; source: expressed and purified as in Accardi and Miller, 2004, final step Superdex 200 size exclusion
On to B5, for which the binding result in series [1] is recorded as “binds”.

B6: D417C/L361A ClC-ec1 (cysteine-less background) (natural protein, E. coli)
chain: MKTDTPSLETPQAARLRRRQLIRQLLERDKTPLAILFMAAVVGTLVGLAAVAFDKGVAWLQNQRMGALVHTADNYPLLLTVAFLASAVLAMFGYFLVRKYAPEAGGSGIPEIEGALEDQRPVRWWRVLPVKFFGGLGTLGGGMVLGREGPTVQIGGNIGRMVLDIFRLKGDEARHTLLATGAAAGLAAAFNAPLAGILFIIEEMRPQFRYTLISIKAVFIGVIMSTIMYRIFNHEVALIDVGKLSDAPLNTLWLYLILGIIFGIFGPIFNKWVLGMQDLLHRVHGGNITKWVLMGGAIGGLAGLLGFVAPATSGGGFNLIPIATAGNFSMGMLVFIFVARVITTLLSFSSGAPGGIFAPMAALGTVLGTAFGMVAVELFPQYHLEAGTFAIAGMGALLAASIRAPLTGIILVLEMTCNYQLILPMIITGLGATLLAQFTGGKPLYSAILARTLAKQEAEQLARSK
notes: ClC-ec1; D417C with the Helix-N mutation L361A in the cysteine-less background C85A/C302A/C347S; also called L361A (Helix N); source: expressed and purified as in Accardi and Miller, 2004, final step Superdex 200 size exclusion
In the case of B6, in series [1], the binding result is given as “binds”.

(Values after paper PMC4769167 (eLife, 2016).)
